Experimental data: EP4631959A2, “NOVEL MINIGASTRIN-DERIVED CHOLECYSTOKININ 2 RECEPTOR BINDING MOLECULES FOR IMAGING AND TARGETED RADIOTHERAPY” (priority 2022, dated 2024)
Like-named read-outs stand apart in the source and are kept apart here. Starred links: 1 amine or outer side, 2 acyl side, 3 side chain; linkers in the order of their positions; H or OH if unused. Non-standard residues stand in square brackets, D forms with d. Residues, ends and D or L forms follow the SMILES beside them. *: point of attachment. X3 = CC(C)(C)[Si](F)(c1ccc(C(=O)NC[C@@H](NC(=O)CN2CCN(CC(=O)O)CCN(CC(=O)O)CCN(CC(=O)O)CC2)C(=O)*)cc1)C(C)(C)C; DOTAGA = O=C(O)CN1CCN(CC(=O)O)CCN(C(CCC(=O)*)C(=O)O)CCN(CC(=O)O)CC1; Benzoyl(4-SiFtBu2) = CC(C)(C)[Si](F)(c1ccc(C(=O)*)cc1)C(C)(C)C; DOTA = O=C(O)CN1CCN(CC(=O)O)CCN(CC(=O)*)CCN(CC(=O)O)CC1; X4 = CC(C)(C)[Si](O)(c1ccc(C(=O)*)cc1)C(C)(C)C; d(γGlu) = O=C(O)[C@@H](CCC(=O)[*:2])N[*:1]; 1Nal = N[C@@H](Cc1cccc2ccccc12)C(=O)O; Hyp = O=C(O)[C@@H]1C[C@@H](O)CN1; NMeNle = CCCC[C@H](NC)C(=O)O; PEG4 = NCCOCCOCCOCCOCCC(=O)O; dOrn = NCCC[C@@H](N)C(=O)O; Nle = CCCC[C@H](N)C(=O)O; dDap = NC[C@@H](N)C(=O)O; AEEA = NCCOCCOCC(=O)O

Experiments:
[1] = n-Octanol-PBS distribution coefficient (logD7.4); format: physicochemical; details: pH = 7.4, ^177Lu-labeled
Protocol: Approximately 1 MBq of the labeled tracer was dissolved in 1 mL of a 1/1 mixture (v/v) of phosphate buffered saline (PBS, pH = 7.4) and n-octanol in an Eppendorf tube (1.5 mL). After vigorous mixing of the suspension for 3 min at rt, the vial was centrifuged at 9,000 rpm for 5 min (Biofuge 15, Heraeus Sepatech, Osterode, Germany) and 200 µL aliquots of both layers were measured in a γ-counter. The experiment was repeated at least five times.

CCK-2R = target: T1, CCK-2R (Rattus norvegicus, UniProt P30553); assay: Determination of IC50: CCK-2R affinity on AR4-2J cells, competition with [^177Lu]Lu-DOTA-PP-F11N; format: binding; details: for IC50: AR4-2J cells
T1 construct: The CCK-2R expressing rat pancreatic tumor cells AR4-2J; host or cells: AR4-2J rat pancreatic tumor cells
T1 sequence (P30553 1-452): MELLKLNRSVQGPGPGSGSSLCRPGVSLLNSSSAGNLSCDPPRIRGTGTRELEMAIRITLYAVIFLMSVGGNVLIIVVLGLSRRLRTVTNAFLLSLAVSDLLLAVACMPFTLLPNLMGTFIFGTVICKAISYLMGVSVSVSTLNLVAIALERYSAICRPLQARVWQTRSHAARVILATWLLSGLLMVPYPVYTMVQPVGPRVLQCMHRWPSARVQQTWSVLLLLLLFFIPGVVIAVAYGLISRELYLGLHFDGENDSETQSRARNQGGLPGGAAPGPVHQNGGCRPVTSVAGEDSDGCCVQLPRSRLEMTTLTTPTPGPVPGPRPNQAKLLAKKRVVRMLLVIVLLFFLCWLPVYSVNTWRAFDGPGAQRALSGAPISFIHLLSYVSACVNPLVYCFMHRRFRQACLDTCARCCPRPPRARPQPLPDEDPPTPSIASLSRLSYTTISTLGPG
Protocol: AR4-2J cells were harvested 24 ± 2 h before the experiment and seeded in 24-well plates (2.0 × 10^5 cells in 1 mL/well). After removal of the nutrient medium (RPMI 1640, 5 mM L-Gln, 5 mL non-essential amino acids (100×), 10% FCS), the cells were washed once with 500 µL PBS. Thereafter, 200 µL nutrient medium (5% BSA, v/v) were added. Next, 25 µL per well of solutions containing either nutrient medium (5% BSA, v/v) as control or the respective compound in increasing concentration (10^-10 - 10^-4 M), were added with subsequent addition of 25 µL [^177Lu]Lu-DOTA-PP-F11N (0.3 pmol/well).
All experiments were performed in triplicate for each concentration. After 3 h incubation at 37 °C, the experiment was terminated by removal of the medium and consecutive rinsing with 300 µL PBS. The media of both steps were combined in one fraction and represent the amount of free radiolabeled reference. Afterwards, the cells were lysed with 300 µL of 1 M NaOH for at least 15 min and united with the 300 µL NaOH of the following washing step. Quantification of bound and free radiolabeled reference was accomplished in a γ-counter. IC50 determination for each conjugate was repeated twice.

[2] = read-out: IC50 [nM] (n = 3), ^natLu-labeled, ^natLu-labeled

SMILES	logD7.4 (n ≥ 5), ^177Lu-labeled [1]	IC50 (CCK-2R; [2])	further results
CCCC[C@H](NC(=O)[C@H](Cc1c[nH]c2ccccc12)NC(=O)CNC(=O)[C@H](Cc1ccc(O)cc1)NC(=O)[C@H](C)NC(=O)CC[C@@H](NC(=O)CC[C@@H](NC(=O)CC[C@@H](NC(=O)CC[C@@H](NC(=O)CC[C@@H](NC(=O)CC[C@@H](NC(=O)CC[C@@H](NC(=O)[C@H](N)CCCNC(=O)[C@@H](CNC(=O)c1ccc([Si](F)(C(C)(C)C)C(C)(C)C)cc1)NC(=O)CN1CCN(CC(=O)O)CCN(CC(=O)O)CCN(CC(=O)O)CC1)C(=O)O)C(=O)O)C(=O)O)C(=O)O)C(=O)O)C(=O)O)C(=O)O)C(=O)N[C@@H](CC(=O)O)C(=O)N[C@@H](Cc1ccccc1)C(N)=O [DOTA-MG-SiFA-28, DOTA-dap(SiFA)-γ-orn-(γ-glu)7-F11N]	−1.81 ± 0.10		
CCCC[C@@H](C(=O)N[C@@H](CC(=O)O)C(=O)N[C@@H](Cc1cccc2ccccc12)C(N)=O)N(C)C(=O)[C@H](Cc1c[nH]c2ccccc12)NC(=O)CCOCCOCCOCCOCCNC(=O)CC[C@@H](NC(=O)[C@@H]1C[C@@H](O)CN1C(=O)[C@@H]1C[C@@H](O)CN1C(=O)[C@@H]1C[C@@H](O)CN1C(=O)[C@@H]1C[C@@H](O)CN1C(=O)[C@@H]1C[C@@H](O)CN1C(=O)[C@@H]1C[C@@H](O)CN1C(=O)CC[C@@H](NC(=O)[C@@H](CNC(=O)c1ccc([Si](O)(C(C)(C)C)C(C)(C)C)cc1)NC(=O)CN1CCN(CC(=O)O)CCN(CC(=O)O)CCN(CC(=O)O)CC1)C(=O)O)C(=O)O [DOTA-rhCCK-84.2, DOTA-dap(SiOH)-γ-glu-(Hyp)6-γ-glu-(PEG)3-Trp-(N-Me)Nle-Asp-1-Nal-NH2] ({DOTA}-[dDap](X4)[d(γGlu)][Hyp][Hyp][Hyp][Hyp][Hyp][Hyp][d(γGlu)][PEG4]W[NMeNle]D[1Nal]-NH2)	−2.21 ± 0.08	13 ± 0.8 nM	
CCCC[C@H](NC(=O)[C@H](Cc1c[nH]c2ccccc12)NC(=O)CNC(=O)[C@H](Cc1ccc(O)cc1)NC(=O)[C@H](C)NC(=O)[C@@H](CNC(=O)c1ccc([Si](F)(C(C)(C)C)C(C)(C)C)cc1)NC(=O)[C@@H](CCC(=O)O)NC(=O)[C@@H](CCC(=O)O)NC(=O)[C@@H](CCC(=O)O)NC(=O)[C@@H](CCC(=O)O)NC(=O)[C@@H](CCC(=O)O)NC(=O)[C@@H](CCC(=O)O)NC(=O)CCC(C(=O)O)N1CCN(CC(=O)O)CCN(CC(=O)O)CCN(CC(=O)O)CC1)C(=O)N[C@@H](CC(=O)O)C(=O)N[C@@H](Cc1ccccc1)C(N)=O (some centres unmarked) [DOTAGA-MG-SiFA-5, DOTAGA-glu-[dap(SiFA)^6]F11N] ({DOTAGA}-[dE][dE][dE][dE][dE][dE][dDap](Benzoyl(4-SiFtBu2))AYGW[Nle]DF-NH2)	−1.71 ± 0.10	629 ± 48 nM	
CCCC[C@H](NC(=O)[C@H](Cc1c[nH]c2ccccc12)NC(=O)CNC(=O)[C@H](Cc1ccc(O)cc1)NC(=O)[C@H](C)NC(=O)CC[C@@H](NC(=O)CC[C@@H](NC(=O)CC[C@@H](NC(=O)CC[C@@H](NC(=O)CC[C@@H](NC(=O)CC[C@@H](NC(=O)CN1CCN(CC(=O)O)CCN(CC(=O)O)CCN(CC(=O)O)CC1)C(=O)O)C(=O)O)C(=O)O)C(=O)O)C(=O)O)C(=O)O)C(=O)N[C@@H](CC(=O)O)C(=O)N[C@@H](Cc1ccccc1)C(N)=O [DOTA-PP-γ-F11N, DOTA-γ-glu^1-γ-glu^2-γ-glu^3-γ-glu^4-γ-glu^5-γ-glu^6-Ala^7-Tyr^8-Gly^9-Trp^10-Nle^11-Asp^12-Phe^13-NH2, reference compound] ({DOTA-d(γGlu)-d(γGlu)-d(γGlu)-d(γGlu)-d(γGlu)-d(γGlu)}-AYGW[Nle]DF-NH2)	−4.38 ± 0.05		IC50 (CCK-2R; references ^natLu-labeled, other peptides without chelator, read-out: IC50 [nM] (n = 3)): 7.5 ± 0.5 nM; IC50 value, fold lower than [^natLu]Lu-DOTA-PP-F11N (CCK-2R; ^natLu-labeled): 1.7 fold
CCCC[C@@H](C(=O)N[C@@H](CC(=O)O)C(=O)N[C@@H](Cc1cccc2ccccc12)C(N)=O)N(C)C(=O)[C@H](Cc1c[nH]c2ccccc12)NC(=O)CNC(=O)[C@H](Cc1ccc(O)cc1)NC(=O)[C@H](C)NC(=O)CC[C@@H](NC(=O)CC[C@@H](NC(=O)CC[C@@H](NC(=O)CC[C@@H](NC(=O)CC[C@@H](NC(=O)CC[C@@H](NC(=O)CC[C@@H](NC(=O)CC[C@@H](NC(=O)[C@@H](CNC(=O)c1ccc([Si](F)(C(C)(C)C)C(C)(C)C)cc1)NC(=O)CN1CCN(CC(=O)O)CCN(CC(=O)O)CCN(CC(=O)O)CC1)C(=O)O)C(=O)O)C(=O)O)C(=O)O)C(=O)O)C(=O)O)C(=O)O)C(=O)O [DOTA-MG-SiFA-40, DOTA-dap(SiFA)-(γ-glu)8-MGS5]	−1.83 ± 0.04	8.27 ± 0.35 nM	
CCCC[C@H](NC(=O)[C@H](Cc1c[nH]c2ccccc12)NC(=O)CNC(=O)[C@H](Cc1ccc(O)cc1)NC(=O)[C@H](C)NC(=O)CC[C@@H](NC(=O)CC[C@@H](NC(=O)CC[C@@H](NC(=O)CC[C@@H](NC(=O)CC[C@@H](NC(=O)CC[C@@H](NC(=O)CCCNC(=O)CCCNC(=O)[C@@H](CNC(=O)c1ccc([Si](F)(C(C)(C)C)C(C)(C)C)cc1)NC(=O)CN1CCN(CC(=O)O)CCN(CC(=O)O)CCN(CC(=O)O)CC1)C(=O)O)C(=O)O)C(=O)O)C(=O)O)C(=O)O)C(=O)O)C(=O)N[C@@H](CC(=O)O)C(=O)N[C@@H](Cc1ccccc1)C(N)=O [DOTA-MG-SiFA-45, DOTA-dap(SiFA)-(GABA)2-(γ-glu)6-F11N]	−1.98 ± 0.02	3.15 ± 0.12 nM	
CCCC[C@H](NC(=O)[C@H](Cc1c[nH]c2ccccc12)NC(=O)CNC(=O)[C@H](Cc1ccc(O)cc1)NC(=O)[C@H](C)NC(=O)CC[C@@H](NC(=O)CC[C@@H](NC(=O)CC[C@@H](NC(=O)CC[C@@H](NC(=O)CC[C@@H](NC(=O)CC[C@@H](NC(=O)CC[C@@H](NC(=O)[C@H](N)CCCCNC(=O)[C@@H](CNC(=O)c1ccc([Si](F)(C(C)(C)C)C(C)(C)C)cc1)NC(=O)CN1CCN(CC(=O)O)CCN(CC(=O)O)CCN(CC(=O)O)CC1)C(=O)O)C(=O)O)C(=O)O)C(=O)O)C(=O)O)C(=O)O)C(=O)O)C(=O)N[C@@H](CC(=O)O)C(=O)N[C@@H](Cc1ccccc1)C(N)=O [DOTA-MG-SiFA-30, DOTA-dap(SiFA)-γ-lys-(γ-glu)7-F11N]	−1.74 ± 0.03		
CCCC[C@H](NC(=O)[C@H](Cc1c[nH]c2ccccc12)NC(=O)CNC(=O)[C@H](Cc1ccc(O)cc1)NC(=O)[C@H](C)NC(=O)CC[C@@H](NC(=O)CC[C@@H](NC(=O)CC[C@@H](NC(=O)CC[C@@H](NC(=O)CC[C@@H](NC(=O)CC[C@@H](NC(=O)CC[C@@H](NC(=O)[C@H](N)CCCCNC(=O)[C@@H](CNC(=O)c1ccc([Si](F)(C(C)(C)C)C(C)(C)C)cc1)NC(=O)[C@H](N)CCCCNC(=O)CN1CCN(CC(=O)O)CCN(CC(=O)O)CCN(CC(=O)O)CC1)C(=O)O)C(=O)O)C(=O)O)C(=O)O)C(=O)O)C(=O)O)C(=O)O)C(=O)N[C@@H](CC(=O)O)C(=O)N[C@@H](Cc1ccccc1)C(N)=O [DOTA-MG-SiFA-31, DOTA-γ-lys-dap(SiFA)-γ-lys-(γ-glu)7-F11N]	−1.88 ± 0.10		
CCCC[C@H](NC(=O)[C@H](Cc1c[nH]c2ccccc12)NC(=O)CNC(=O)[C@H](Cc1ccc(O)cc1)NC(=O)[C@H](C)NC(=O)CC[C@@H](NC(=O)CC[C@@H](NC(=O)CC[C@@H](NC(=O)CC[C@@H](NC(=O)CC[C@@H](NC(=O)[C@H](N)CCCNC(=O)[C@@H](CNC(=O)c1ccc([Si](F)(C(C)(C)C)C(C)(C)C)cc1)NC(=O)CN1CCN(CC(=O)O)CCN(CC(=O)O)CCN(CC(=O)O)CC1)C(=O)O)C(=O)O)C(=O)O)C(=O)O)C(=O)O)C(=O)N[C@@H](CC(=O)O)C(=O)N[C@@H](Cc1ccccc1)C(N)=O [DOTA-MG-SiFA-27, DOTA-dap(SiFA)-γ-orn-(γ-glu)5-F11N] (H-[dOrn](X3)[d(γGlu)][d(γGlu)][d(γGlu)][d(γGlu)][d(γGlu)]AYGW[Nle]DF-NH2)	−1.90 ± 0.10		
CCCC[C@@H](C(=O)N[C@@H](CC(=O)O)C(=O)N[C@@H](Cc1cccc2ccccc12)C(N)=O)N(C)C(=O)[C@H](Cc1c[nH]c2ccccc12)NC(=O)COCCOCCNC(=O)CC[C@@H](NC(=O)CN1CCN(CC(=O)O)CCN(CC(=O)O)CCN(CC(=O)O)CC1)C(=O)O [DOTA-CCK-77, DOTA-γ-glu-PEG-Trp-(N-Me)Nle-Asp-1-Nal-NH2] ({DOTA-d(γGlu)-AEEA}-W[NMeNle]D[1Nal]-NH2)	−3.09 ± 0.06		logD7.4 (n ≥ 5), ^177Lu-labeled ([1]; listed as [^177Lu]Lu-DOTA-CCK-77): < -3
